This data set can be described thus: label from the status in PepcDB records.
Regarding “MAILVTGSTGTIGSQVLAHLQGHNVEVRALTRSPETAQFPAGVTAVRGDLADPDSVRAALRGVSTLFLLAPNVADELTQAMLTLTVAREAGVKGIVYLSVFGGDGYADVPHFAGKYTVERMIEALDLPATILRPAYFIQNDLRQKDGLLKTGVYGSPIGKKGVSMVDIRDIGEAAAIELLRREQAATPLGRETYALVGPDSLTGEGIATIWREALGRAIRHGGDDLVVMEQRTKTMLPAWHALDLRLMFSRYQTEGAVATADDIERLTKLLGHAPRSYTAFARDAAAQWTKG”, the protein production result is given as “failed”.
Take “MAIQFIVSNKYTAEVSKQLNDSQNWVLDSGIYYEDHNNHIVSSPINSATKPQNTREEWLWIPPHCQVVVCSTSSLKSFLGCKASEDLDRVFGDHPLWLDQLRPLSNLLENSLIDLLSRAPFEQSSKRNIQSMERGNPVMNWNVMQVEEEDTRGEQRVAASSSLSSSFDWNTFLRDRCGLSEEDVAYCFRKLSRFGRVSLSRLNEDSLLRMGINDPTVIAKLLIGITEEFS”: the protein production entry is listed as “failed”.
Regarding “MAIQKGDFIKLNYTGRFEDGRIFDTTDEELAKKEEIFNPRGLYGGDVVIVGAGHTIEGLDEDLEGKEAGYSSTVTIPPEKAFGLSNSKLVETVSITKFQDRNVHPGLPVELEGKRGVVSRVIGRKVTVDFNSPLAGKTVSYEYTIEKLLEDDVEMIQGLLALYTGMRDMEVEITDGVAKIYVPTGLTFNQRWLMAKNRVVSELFKYAGLKEVQLIEKLTAEAEAPVPAEPEVEAEAEAEAEVEAEVKEETSESHE”, the protein production entry is “failed”.
With “MAISDANRGGAPGAAPGPDPAHILHELAGLMAISPGRDFLDELVNRAVQRLGVDYAWVVLHGAKGEHARTVLSANCRMRWNGAESYLATGQSALAGVLSHATQYVCARDLERHVPGDLALRRLGAQACVAHALRDESGLQRGHVAFVFSEPLADPAIYVSALSACAAFTERAVLALDAERKARQEALQLASRYQALFEKAPVLINAFDARGKCILWNLECERKFGWSMEEVNNHPEPLALFYPDPQTRARVVASVSQAPGRAFEEWHPVTRAGKVLSTLWSNIVLESGTIVNIGLDITERKRAELALTRLATIDSLTDCWNRAEILKILRQEITRLRQHPDQPLAVVMLDLDHFKQLNDLHGHLVGDAALRYFSDQLRSNLRGTDFVGRIGGEEFLALLPGCDGDAALAMADRLRAALRNDPFTTEGQAAPLSVSVGIAFATPEDTAVSDVMRRADTALYEAKRRGRDRAVVYFG”, the protein production entry is “failed”.
Take “MAKAQTVTILSPVNGDVIALNKVKDPVFSAGMMGLGFGVQPSSGEVVAPVSGQVTMVAETKHAIGFTTPDDHLEVLVHLGIDTVDLKGAPFTVKVAAGDDVQAGDVIATMDLAAIQAANRQTTVILAVTNTSDKLESLDVVTGAKAAGDVTATGRLNANTFNAKRQNRLPKAGKYDQLAADIVANVGGVENVSSLIHCITRLRFYLKDESKANDDVVRDLKGVIDVAKAGGQYQVVIGPAVTDVYDAIIKQIGPGFSNDSETAKAVAETAAAAQRPTTPWGKVKWGISNLIGVITGSMIPVIGLLAASGILKGILALLTTFNLVSPTAPTYVIINAMGDSVFYFLPIFVGFTAGKKLGADPVIMGIIGGVLTYPAIVTMASGKATSTLLGMGINANFFGLPVHVASYTYSIFPMIAGAWLASKLEPWLKRVIPTVLRMIFVPLFEVVIVSGAILLFLGPIITVLSTGLANIIVWVYNLSPAISGLIIGGFYQVLVIFGLHWAVIPIVANDIATTGHSYLNAIVSATMVAQGGAVFAIALKSKLANIQELAWPATISAFCGVTEPAMYGINLKYGRAFVTASIGAAVGGFLTGLMNVNMWGFTGSLIGFTSFVNPKGLDFSFYGFLIASAATIVVSFALTWMFGFKDEDANAVKVAPKKRHLGATA”: the protein production entry is given as “failed”.
In the case of “MAKEIKFSDSARNLLFEGVRQLHDAVKVTMGPRGRNVLIQKSYGAPSITKDGVSVAKEIELSCPVANMGAQLVKEVASKTADAAGDGTTTATVLAYSIFKEGLRNITAGANPIEVKRGMDKAAEAIINELKKASKKVGGKEEITQVATISANSDHNIGKLIADAMEKVGKDGVITVEEAKGIEDELDVVEGMQFDRGYLSPYFVTNAEKMTAQLDNAYILLTDKKISSMKDILPLLEKTMKEGKPLLIIAEDIEGEALTTLVVNKLRGVLNIAAVKAPGFGDRRKEMLKDIAILTGGQVISEELGLSLENAEVEFLGKAGRIVIDKDNTTIVDGKGHSHDVKDRVAQIKTQIASTTSDYDKEKLQERLAKLSGGVAVIKVGAASEVEMKEKKDRVDDALSATKAAVEEGIVIGGGAALIRAAQKVHLNLHDDEKVGYEIIMRAIKAPLAQIAINAGYDGGVVVNEVEKHEGHFGFNASNGKYVDMFKEGIIDPLKVERIALQNAVSVSSLLLTTEATVHEIKEEKAAPAMPDMGGMGGMGGMGGMM”, the protein production result is “failed”.
Take “MAKELYVGHMSYEATEDDLRRLFSVAGTVTSVHIITDPETGRSKGCGYVRMLTEEEAKEAIETLDGALLRNRVITVSVARPQKQATRPAPRRGKPGPGGRPGKKRPS”: the protein production entry is given as “failed”.
For the sequence “MAKFNQDLNEVLNQALNLALDLNHALCTTEHVLLVILEHESGEKIIGTLERDDYDKLKQILKDYLLQYVPLKSDPAKMPARSFVLLRMLKRMYASCFESVGVEELLILMLDHPDCYASKLMDSFGIARLYSNPALLDLDNHGIPNDINDNEEAPKNTPLKKYAKNLSALAQDNALDPVIGREEEILRVIEILGRRKKNNPLLIGEAGVGKTSIAEALALKIAQKEVPEFLQEYEVYSLDLALMVAGAKYRGDFEKRLKKTLKEIQQNGRIILFIDEIHTLLGTGSSNAGSLDAANILKPVLTDGSLKCLGATTFEEYRSVFEKDKAFNRRFSVIKVEEPSKEACYLILKKIAPLYEEHHQVRYDESVFKACVDLTSDYMHDKFLPDKAIELLDEVGSRKKISPKKGKKIGVDDVKETLALKLKIPKMRLSSDKKALLRNLEKSLKNKIFAQAEAISLVSNAIKIQHCGLSAKNKPVGSFLFVGPSGVGKTELAKELALNLNLHFERFDMSEYKEAHSVAKLIGSPSGYVGFEQGGLLVNAIKKHPHCLLLLDEIEKAHSNVYDLLLQVMDNATLSDNLGNQASFKHVILIMTSNVGSKDKDTLGFFSAKNTKYDKAVKELLTPELRSRIDAIVPFNALSLEDFERIVSVELDKLKALALEQDITLKFHKEVVKFIAQKSYQTTLGAREIKKIIHNEIKTKLSDILLLQSFKKPCKIACLLEKNQLVLKEIKRAQKVKENDF”, the protein production entry is given as “failed”.
As to “MAKGPLVSFQALVENARDLVYVLDAGGAIRYASPNVRQVLGYDPEGHTRETLYALDFVHPEDRTYAEAALEDLLRHPGKTREFRLRLLDAWGRVRAVRVWGRNLLEDPAVRGIIINVHDETELEAERA”, the protein production entry is reported as “failed”.
As to “MAKILEGPAMKLFNKWGIPVPNYVVIMDPERLAQLGEANKWLRESKLVVKAHEAIGGRFKLGLVKLGLNLEEALEASREMIGRKIGTAVVRQVIVAEMLEHDEEYYVSIAGNRDGAELLLSTKGGVDIEDNWDTVKRLFIPMDETPSVERLTEVAAEAGFTGEVAERVAKIAARLILCFDNEDAQSIEINPLVIRKSDMRFAALDAVMNVDYDARFRHADWDFKPVSEIGRPYTEAEQQIMEIDARIKGSVKFVEVPGGEIALLTAGGGASVFYSDAVVARGGTIANYAEYSGDPPDWAVEALTETICRLPKIRHIIVGGAIANFTDVKATFSGIINGLRESRSKGYLQNVTIWVRRGGPNENQGLAAIRKLQDEGFDIHVYDRSMPMTDIVDLAMNS”, the protein production entry is recorded as “failed”.
Consider “MAKKRESPKLIKIKDAIKLINQQVSLIGIVLEQREPKQCRNNDWICTLRIIDDTYPSPGLTVNVFSKTLEQLPQIKNHDDMILFTRIKMQTFDSGERVNAACSRWVSSFALFEGVDFVCYQCSTNFHEEEALYKSAMDDLRKVFAGCSQVIKAMQSISYRTKPCSEVFSFLREIKIGKRFDLVCRILHADEDTSAVFVWDGTDAPPASILAKRSEEDKAFSSLSVHTLLSRDVLLSFPTVGTILRVHLSSHLFYRVKPGDWVKLYHLLCEVDRGSWVIKVTSSTKVHHLAQDDRLVEKIMRIYDKRLSSKLGHISFWCFPSPPGLTETDDNCAPFVTLMDIITFPKVTCKYRCIVRVVAAYPWQVEDFCSDENRRHHQVLLTLEDSTATLEAFLCNKDAEYFWGLGFQDTETLRKKRNWLLGIRESSNFVAPRNPPWIECCILSYYTNKADPWNTRLYRIFGTRLLH”, for which the protein production result was “failed”.
On to “MAKKTKAKAAKAARPKAAKTAVAKAKPAKRGVAARSVAAKPPKVAPGELVTLLDFVRYAVSRFAEAGVVFAHGTTDPIAEAVFLVGEALHLHPDQFEMFASARVTTREAAAILGLIERRIGSRLPAAYLVNKIYMRGVPFYVDERVIVPRSYIGELLDSHFDGGDTSLIDAPEAIERVLDLCTGSGCLAILAAYAFPNATVDAVDLSKDALAVATRNVAEHRLDDRVSLYHGDLFGPLGDERYDLIITNPPYVDADGMASLPAECRAEPAMAFDGGDDGLTIIRRILAEAKHHLNPDGGLLCEVGRCRPQIEDEFPQLPLLWLDSEDSEAEVFWIAAADL”, for which the protein production entry was “failed”.
In the case of “MAKLAGQKVRIGGWVKTGRQQGKGTFAFLEVNDGSCPANLQVMVDSSLYDLSRLVATGTCVTVDGVLKIPPEGKGLKQSIELSVETVIAVGTVDP”, the protein production result is recorded as “not failed”.
For the sequence “MAKNAPRFVCQACGAVYPRWMGRCEACGEWNSIAEEAPAEALPKGQTGGRGGQRLSFVSLEGVGAPPPRLLTGIPELDRVAGGGLVAGSALLIGGDPGIGKSTLLLQAVAGLARGGARSVYISGEEAIDQVRLRALRLGLEKAPVDLAAATSVRDIVATLDSGEPPDVVVIDSIQTMYLDTLDSAPGTVAQVRAGSHELIRLAKRRGFVLFLVGHVTKEGQMAGPRVMEHMVDAVIYFEGERGHPFRILRAVKNRFGATDEIGVFEMSDAGLSEVPNPSALFLAERRGNVTGSCVFAGMEGTRPMLVEIQALVGPSAPGSARRAVVGWDGGRLAMVMAVLETRCGLALGGNDVYLNVAGGLRIGEPAADLAVAAALVSSFSGVPVPPDMVVFGEIGLSGEIRAVAHGDTRLKEAAKLGFDQALMPARPRDSGKRGGPGVKEGLRMREIGHLQDLVALLAPPENAGQGQRLEHHHHHH”, the protein production result is “not failed”.
Regarding “MAKNDRKEPYPVINILECKACGRCLLACPKDVLFMSENLNARGYHYIEYKGEGCSGCASCYYTCPEPLALEIHIPLKKEEAE”, the protein production result is given as “failed”.
For the sequence “MAKNIQAIRGMNDYLPGETAIWQRIEGTLKNVLGSYGYSEIRLPIVEQTPLFKRAIGEVTDVVEKEMYTFEDRNGDSLTLRPEGTAGCVRAGIEHGLLYNQEQRLWYIGPMFRHERPQKGRYRQFHQLGCEVFGLQGPDIDAELIMLTARWWRALGISEHVTLELNSIGSLEARANYRDALVAFLEQHKEKLDEDCKRRMYTNPLRVLDSKNPEVQALLNDAPALGDYLDEESREHFAGLCKLLESAGIAYTVNQRLVRGLDYYNRTVFEWVTNSLGSQGTVCAGGRYDGLVEQLGGRATPAVGFAMGLERLVLLVQAVNPEFKADPVVDIYLVASGADTQSAAMALAERLRDELPGVKLMTNHGGGNFKKQFARADKWGARVAVVLGESEVANGTAVVKDLRSGEQTAVAQDSVAAHLRTLLG”, the protein production entry is recorded as “not failed”.
Regarding “MAKPPTTIEVSPTITLPQQDPSLMGVTVSINGADQRTDQALAKVTRDNQIVTLTASRDLRFLLQEVLEKQMTARGYMVGPNGPVNLQIIVSQLYADVSQGNVRYNIATKADIAIIATAQNGNKMTKNYRASYNVEGAFQASNKNIADAVNSVLTDTIADMSQDTSIHEFIKQNARLEHHHHHH”, the protein production entry was “not failed”.
Regarding “MAKPVLVRNTEEMMMNLDFPTYIKVAELGCSSGQNSFLAIFEIINTINVLCQHVNKNSPEIDCCLNDLPENDFNTTFKFVPFFNKELMITNKSSCFVYGAPGSFYSRLFSRNSLHLIHSSYALHWLSKVPEKLENNKGNLYITSSSPQSAYKAYLNQFQKDFTMFLRLRSEEIVSNGRMVLTFIGRNTLNDPLYRDCCHFWTLLSNSLRDLVFEGLVSESKLDAFNMPFYDPNVQELKEVIQKEGSFEINELESHGFDLGHYYEEDDFEAGRNEANGIRAVSEPMLIAHFGEEIIDTLFDKYAYHVTQHANCRNKTTVSLVVSLTKK”, the protein production entry is recorded as “failed”.

For the origin of these results see a protein production outcome set (Wang et al. 2014).
